Values quoted from earlier work in patent US7759315B2, “Treatment of inflammatory conditions of the intestine” (CSL Behring AG, priority 2005, dated 2010).
Non-standard residues stand in square brackets, D forms with d. No end group written: not given here. Nal = naphthylalanine (source code Z); Aib = CC(C)(N)C(=O)O

Columns and labels:
LCAT = target: T1, LCAT (Homo sapiens, UniProt P04180)
T1 sequence (P04180 25-440): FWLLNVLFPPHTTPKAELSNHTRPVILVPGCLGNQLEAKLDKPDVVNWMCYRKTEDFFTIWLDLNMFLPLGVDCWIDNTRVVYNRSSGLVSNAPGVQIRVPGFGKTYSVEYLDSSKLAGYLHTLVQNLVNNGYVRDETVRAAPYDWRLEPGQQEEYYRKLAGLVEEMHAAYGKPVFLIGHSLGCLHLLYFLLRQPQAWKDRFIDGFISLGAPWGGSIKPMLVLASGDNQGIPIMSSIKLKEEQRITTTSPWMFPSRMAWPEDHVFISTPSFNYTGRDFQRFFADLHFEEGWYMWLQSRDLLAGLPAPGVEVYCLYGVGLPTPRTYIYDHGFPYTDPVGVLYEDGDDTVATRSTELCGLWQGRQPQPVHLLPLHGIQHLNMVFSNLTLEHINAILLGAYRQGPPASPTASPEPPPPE

[1] = percent helicity; for He (%): micelles; for He (%) free: free peptide

| ACTIVITY (%) LCAT (LCAT) | Substance | Crohn's disease activity index (CDAI) (Crohn's disease patients) | histopathological and endoscopic inflammation (Crohn's disease patients) | He (%) [1] | He (%) free [1] |
| --- | --- | --- | --- | --- | --- |
|  | Infliximab | significant reduction | attenuation |  |  |
| 76% | PVLDLFRELWEELKQKLK* (not fully specified (N-terminus, C-terminus); printed as PVLDLFRELWEELKQKLK*) [Peptide 199] |  |  | 77% |  |
| 60% | PVLDLFRELWNELLEALKQKLK [Peptide 15] |  |  | 60% |  |
| 29% | PVLDLFREWLNELLEALKQKLK [Peptide 37] |  |  | 75% |  |
| 15% | PVLDLFRNLLEELLEALQKKLK [Peptide 66] |  |  | 82% |  |
| 22% | PVLDLFRNLLEKLLEALEQKLK [Peptide 49] |  |  | 65% |  |
| 0% | PVLDLFRWLLNEXLEALKQKLK (PVLDLFRWLLNE[Aib]LEALKQKLK; not fully specified (C-terminus)) [Peptide 108] |  |  | 55% |  |
| 20% | PVLDLFWELLNEXLEALKQKLK (PVLDLFWELLNE[Aib]LEALKQKLK; not fully specified (C-terminus)) [Peptide 51] |  |  | 82% |  |
| 25% | PVLDLWRELLNEXLEALKQKLK (PVLDLWRELLNE[Aib]LEALKQKLK; not fully specified (C-terminus)) [Peptide 41] |  |  | 73% |  |
| 31% | PVLDWFRELLNELLEALKQKLK [Peptide 35] |  |  | 59% | 49 (sp) % |
| 32% | PVLDZFRELLNELLEALKQKLK (PVLD[Nal]FRELLNELLEALKQKLK; not fully specified (C-terminus)) [Peptide 34] |  |  | 67% |  |
| 39% | PVLELFENLLERGLDALQKKLK [Peptide 154] |  |  | 76% |  |
| 75% | PVLELFENLLERLGDALQKKLK [Peptide 148] |  |  | 76% |  |
| 86% | PVLELFENLLERLLDALQKKLK [Peptide 146] |  |  | 100% |  |
| 24% | PVLELFENLLERLLDAWQKKLK [Peptide 164] |  |  | 66% |  |
| 28% | PVLELFENLLERLLDWLQKKLK [Peptide 160] |  |  | 73% |  |

| ACTIVITY (%) LCAT (LCAT) | Substance | Crohn's disease activity index (CDAI) (Crohn's disease patients) | histopathological and endoscopic inflammation (Crohn's disease patients) | He (%) [1] | He (%) free [1] |
| --- | --- | --- | --- | --- | --- |
| 26% | PVLELFENLLERLWDALQKKLK [Peptide 163] |  |  | 53% |  |
| 63% | PVLELFENLWERLLDALQKKLK [Peptide 149] |  |  | 54% |  |
| 27% | PVLELFENWLERLLDALQKKLK [Peptide 162] |  |  | 83% |  |
| 88% | PVLELFRELLEELKQKLK* (not fully specified (N-terminus, C-terminus); printed as PVLELFRELLEELKQKLK*) [Peptide 194] |  |  | 93% |  |
| 20% | PVWDEFREKLNEXLEALKQKLK (PVWDEFREKLNE[Aib]LEALKQKLK; not fully specified (C-terminus)) [Peptide 52] |  |  | sp |  |
| 7% | P~LDLFRELLNELLEALKQKLK (PLDLFRELLNELLEALKQKLK) [Peptide 85] |  |  | 61% |  |
| 19% | P~~~LFRELLNELLEALKQKLK (PLFRELLNELLEALKQKLK) [Peptide 55] |  |  | 72% |  |
| 1% | P~~~~~~~LLNELLEALKQKLK (PLLNELLEALKQKLK) [Peptide 104] |  |  | 49% |  |
| 0% | klkqklaellenllerfldlvp (KLKQKLAELLENLLERFLDLVP; not fully specified; D-amino acids; D-Lys; D-Leu; D-Gln; D-Ala; D-Glu; D-Asn; D-Arg; D-Phe; D-Asp; D-Val; D-Pro) [Peptide 107] |  |  | sp |  |
| 111% | pVLELFENLLERLLDALQKKLK ([dP]VLELFENLLERLLDALQKKLK; not fully specified (C-terminus); printed as pVLELFENLLERLLDALQKKLK) [Peptide 144] |  |  | 88% | 89% |
| 7% | pllellkellqellealkqklk ([dP][dL][dL][dE][dL][dL][dK][dE][dL][dL][dQ][dE][dL][dL][dE][dA][dL][dK][dQ][dK][dL][dK]; not fully specified (C-terminus); printed as pllellkellqellealkqklk) [Peptide 87] |  |  | 100% |  |
| 25% | pvldefreklneXlealkgklk ([dP][dV][dL][dD][dE][dF][dR][dE][dK][dL][dN][dE][Aib][dL][dE][dA][dL][dK][dQ][dK][dL][dK]) [Peptide 44] |  |  | 86% |  |
| 5% | pvldlfrellneXlealkgklk ([dP][dV][dL][dD][dL][dF][dR][dE][dL][dL][dN][dE][Aib][dL][dE][dA][dL][dK][dQ][dK][dL][dK]) [Peptide 96] |  |  | 85% |  |
| 2% | pvldlfrellneXlealkqklk [Peptide 100] |  |  | 92% |  |
| 14% | ~VLDLFRELLNELLEALKQKLK [Peptide 67] |  |  | 90% |  |
